{"source": "patent US20100203044A1", "about": "“DR6 ANTAGONISTS AND USES THEREOF IN TREATING NEUROLOGICAL DISORDERS” (priority 2006, published 2010)", "molecules": {"B1": {"name": "DR6-AP: mouse DR6 ectodomain fused to human placental alkaline phosphatase (protein)", "chain": "QPEQKTLSLPGTYRHVDRTTGQVLTCDKCPAGTYVSEHCTNMSLRVCSSCPAGTFTRHENGIERCHDCSQPCPWPMIERLPCAALTDRECICPPGMYQSNGTCAPHTVCPVGWGVRKKGTENEDVRCKQCARGTFSDVPSSVMKCKAHTDCLGQNLEVVKPGTKETDNVCGMRLFFSSTNPPSSGTVTFSHPEHMESHDVPSSTYEPQGMNSTDSNSTASVRTKVPSGIEEGTVPDNTSSTSGKEGTNRTLPNPPQVTHQQAPHHRHILKLLPSSMEATGEKSSTAIKAPKRGHPRQNAHKHFDINEHIIPVEEENPDFWNREAAEALGAAKKLQPAQTAAKNLIIFLGDGMGVSTVTAARILKGQKKDKLGPEIPLAMDRFPYVALSKTYNVDKHVPDSGATATAYLCGVKGNFQTIGLSAAARFNQCNTTRGNEVISVMNRAKKAGKSVGVVTTTRVQHASPAGTYAHTVNRNWYSDADVPASARQEGCQDIATQLISNMDIDVILGGGRKYMFRMGTPDPEYPDDYSQGGTRLDGKNLVQEWLAKRQGARYVWNRTELMQASLDPSVTHLMGLFEPGDMKYEIHRDSTLDPSLMEMTEAALRLLSRNPRGFFLFVEGGRIDHGHHESRAYRALTETIMFDDAIERAGQLTSEEDTLSLVTADHSHVFSFGGYPLRGSSIFGLAPGKARDRKAYTVLLYGNGPGYVLKDGARPDVTESESGSPEYRQQSAVPLDEETHAGEDVAVFARGPQAHLVHGVQEQTFIAHVMAFAACLEPYTACDLAPPAGTTDAAHPG"}}, "key": {"p75NTR": {"molecular_target": "T1, p75NTR (Homo sapiens, UniProt P08138)", "T1 construct": "expressed in transfected cells; host or cells: COS-1", "T1 sequence (P08138 29-427)": "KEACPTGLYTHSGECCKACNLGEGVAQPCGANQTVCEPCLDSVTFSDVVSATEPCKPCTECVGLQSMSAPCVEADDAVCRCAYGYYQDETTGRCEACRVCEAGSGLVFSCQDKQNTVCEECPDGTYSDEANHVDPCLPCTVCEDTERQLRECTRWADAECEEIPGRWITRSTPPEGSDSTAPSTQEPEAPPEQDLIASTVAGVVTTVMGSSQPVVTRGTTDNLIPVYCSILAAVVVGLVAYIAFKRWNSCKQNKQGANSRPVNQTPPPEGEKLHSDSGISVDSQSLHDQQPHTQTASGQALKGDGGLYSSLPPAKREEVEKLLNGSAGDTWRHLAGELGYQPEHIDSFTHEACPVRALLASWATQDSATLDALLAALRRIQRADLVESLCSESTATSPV", "assay": "cell-based AP binding assay, p75NTR expressing COS-1 cells", "settings": "same conditions as APP binding", "procedure": "(§1) For the APP AP binding assay, COS-1 cells cultured in DMEM/10% FBS (Gibco) medium in 6-well culture dishes were transfected with 2 microgram of APP expressing vector per well using FuGene transfection reagent (Roche) according to the manufacturer protocol. Two days post-transfection, cells were washed twice with the binding buffer (HBSS, Gibco Cat. No. 14175-095, with 0.2% BSA, 0.1% NaN3, 5 mM CaCl2, 1 mM MgCl2, 20 mM HEPES, pH=7.0). An AP binding assay was then carried out by making a 1:1 mixture of DR6-AP conditioned medium and the binding buffer, which was applied directly to APP over-expressing COS-1 cells and incubated for 90 minutes at room temperature. Following the incubation, the unbound DR6-AP proteins were washed away by rinsing COS-1 cells five times with the binding buffer. Cells were then fixed with 3.7% formaldehyde diluted in PBS, for 12 minutes at room temperature. The remaining formaldehyde was removed by rinsing cells 3 times with HBS buffer (20 mM HEPES pH=7.0, 150 mM NaCl). Endogenous AP activity was blocked by heat inactivation at 65° C. in HBS buffer for 30 minutes. COS-1 cells were then rinsed three times in the AP reaction buffer (100 mM TRIS pH=9.5, 100 mM NaCl, 50 mM MgCl2). […]"}, "DR6 receptor": {"molecular_target": "T2, DR6 receptor (Homo sapiens, UniProt O75509)", "T2 construct": "expressed in transfected cells; host or cells: COS-1", "T2 sequence (O75509 42-655)": "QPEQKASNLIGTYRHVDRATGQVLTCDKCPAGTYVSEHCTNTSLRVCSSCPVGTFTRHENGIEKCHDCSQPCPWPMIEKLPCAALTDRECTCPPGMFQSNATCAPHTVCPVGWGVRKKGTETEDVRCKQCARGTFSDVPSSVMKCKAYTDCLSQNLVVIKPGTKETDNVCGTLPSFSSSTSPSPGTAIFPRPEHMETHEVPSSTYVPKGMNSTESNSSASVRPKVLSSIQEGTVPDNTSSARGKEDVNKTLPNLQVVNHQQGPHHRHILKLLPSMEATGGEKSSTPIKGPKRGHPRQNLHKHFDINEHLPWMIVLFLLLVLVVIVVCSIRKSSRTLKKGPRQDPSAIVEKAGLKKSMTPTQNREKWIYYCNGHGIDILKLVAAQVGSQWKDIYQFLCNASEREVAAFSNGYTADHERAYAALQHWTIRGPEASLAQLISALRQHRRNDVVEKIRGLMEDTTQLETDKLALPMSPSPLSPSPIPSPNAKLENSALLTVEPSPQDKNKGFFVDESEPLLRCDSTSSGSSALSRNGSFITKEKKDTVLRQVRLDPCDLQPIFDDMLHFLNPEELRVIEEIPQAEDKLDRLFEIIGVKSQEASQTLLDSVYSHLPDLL", "assay": "cell-based AP binding assay, DR6 receptor expressing COS-1 cells", "settings": "same conditions as APP binding", "procedure": "as §1"}, "APP": {"molecular_target": "T3, APP (Homo sapiens, UniProt P05067)", "T3 construct": "expressed in transfected cells; host or cells: COS-1", "T3 sequence (P05067 18-770)": "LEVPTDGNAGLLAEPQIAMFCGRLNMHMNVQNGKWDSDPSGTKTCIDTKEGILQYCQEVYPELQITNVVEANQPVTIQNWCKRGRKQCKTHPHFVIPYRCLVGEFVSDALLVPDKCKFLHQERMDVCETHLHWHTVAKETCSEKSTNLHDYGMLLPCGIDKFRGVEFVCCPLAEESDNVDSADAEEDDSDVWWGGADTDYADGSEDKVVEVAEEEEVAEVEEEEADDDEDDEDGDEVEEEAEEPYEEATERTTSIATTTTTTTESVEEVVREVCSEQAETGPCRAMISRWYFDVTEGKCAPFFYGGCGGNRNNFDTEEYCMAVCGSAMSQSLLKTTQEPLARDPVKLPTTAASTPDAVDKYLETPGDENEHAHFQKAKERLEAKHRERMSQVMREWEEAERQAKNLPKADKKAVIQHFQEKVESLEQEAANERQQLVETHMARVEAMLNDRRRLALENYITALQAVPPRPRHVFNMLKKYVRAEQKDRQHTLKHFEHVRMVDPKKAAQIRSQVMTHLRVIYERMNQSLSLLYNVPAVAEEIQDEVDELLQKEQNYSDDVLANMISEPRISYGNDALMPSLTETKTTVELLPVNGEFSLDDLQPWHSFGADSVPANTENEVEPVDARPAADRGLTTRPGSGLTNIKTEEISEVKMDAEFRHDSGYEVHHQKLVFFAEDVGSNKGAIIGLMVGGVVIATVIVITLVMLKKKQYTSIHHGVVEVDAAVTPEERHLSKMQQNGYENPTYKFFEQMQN", "assay": "cell-based AP binding assay, APP expressing COS-1 cells", "settings": "DR6-AP conditioned medium 1:1 with binding buffer, 90 minutes", "procedure": "The materials and methods used to generate the data shown in this figure are as follows. To test whether APP directly interacts with DR6 extracellular domain, a cell-based AP binding assay was carried out (FIG. 14B). To generate DR6 ectodomain-AP fusion protein (DR6-AP), COS-1 cells cultured in DMEM/10% FBS (Gibco) medium were transfected with 15 microgram of DR6-AP fusion expression construct using FuGene transfection reagent (Roche) according to the manufacturer protocol. Twelve hours post-transfection, COS-1 cell medium was changed to OPTI-MEM (Invitrogen). Forty-eight hours post-transfection, COS-1 cell conditioned medium containing DR6-AP proteins was collected and filtered.\nThe amount of DR6-AP proteins in the medium was quantified according to the following procedure. 100 microliters of 2×AP buffer (prepared by adding 100 mg Para-nitrophenyl phosphate (Sigma) and 15 microliter of 1M MgCl2 to 15 ml 2M diethanolamine pH 9.8) was mixed with equal volume of transfected COS cell conditioned medium or control conditioned medium from untransfected COS-1 cells. […] The volume of reaction was then adjusted by adding 800 microliters of distilled water and the O.D. was measured at 405 nm absorbance wavelength. The concentration in nM was calculated according to the formula (for 100 microliter): C (nM)=O.D.×100×(60/developing time)/30. […]"}}, "note": "Entries after “also recorded” stand apart in the source; their conditions may differ.", "data": [{"molecule": "B1", "values": [{"measurement": "binding of DR6 ectodomain to p75NTR expressing cells", "setting": "p75NTR", "result": "does NOT bind; also recorded: no specific binding"}, {"measurement": "binding of DR6 ectodomain to DR6 receptor expressing cells", "setting": "DR6 receptor", "result": "does NOT bind; also recorded: no specific binding"}, {"measurement": "binding of DR6 ectodomain to APP expressing cells", "setting": "APP", "result": "binds APP expressed by cultured cells"}]}]}
